Assay: soluble fraction after stress (log2 fold change); higher = more stays soluble; pooled small domains, quantitative proteomics
Conditions: stress: 75 degC
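Note: 20 min heating vs room temperature control held 20 min.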

Row | Sequence | soluble fraction (log2)
1 | HMEKIDEDIMDVLKKKAEVSGISLGVLKSIYEKAVKQYKLGHEIGQVKEQYAMQKVNTHLLENK | 0.461
2 | HMEKIDYLSIGHRLRAYRIASSLKAEDVAESLGISRAAVYRLEKGEIVKIETLDNLARLLNTSLSSLLG | -3.37
3 | HMEKIKNLTVTEFNLIANKNPSGSYDRITREALLHIIHKLESSYEAHTDLERKLFYKFRKAKFNAL | -2.87
4 | HMEKIYLISDAAKQVNVEAHVLRYWEEELDIPAKRNELGHRYYTQEDIETFRKVKELKAQGIQLKGIKNIL | -0.225
5 | HMEKLLTTRQSQIFELAKRKGYWNIPREISITQLAQLTGSSKSTISVMLHAIESKIVDTFYDEI | -3.05
6 | HMEKLNERLLYLRKNANLTQQQLADKLHISNKTISQWETGRTLPDIVMLVRLAEIYDMKLDELLNQ | -1.1
7 | HMEKMLENIDLKAAVEALPEREKKVILLRYYRGMTQDAAAKVMKVSQVQISRIEKRAIEILREKL | -2.54
8 | HMEKNKERIAFLKKRLEMYYEAEEKILQGQSYTIGSRTLTRTSLANVQSKIKELESEISALETRGN | -1.5
9 | HMEKRIIMLEELKKQVYEANMELPRRGLITYTWGNVSGIDRESGNFVIKPSGVDYDKLKPEDMVVMDL | 0.249
10 | HMEKRRQEIVELVKRESEISFAELKQHFPEVSEVTLRKDLKYLDSTLQIIRIHGGAKSLPAAI | -0.965
11 | HMEKTTTLFDETTNPGIIYIGKAMPTGSAISEAAAVWAIKTIDTTTDTEIKWADGVTTYTKVWNNRASYSY | -0.872
12 | HMEKVDAISQSILDVLKKNNGYLAVTDKSDPDEIYGLFQISKKTFKKAIGSLYRDRLISIEEEGIRLR | -0.496
13 | HMEKVTAPMPGVINSIVKNVGDTVKRGDVVLILEAMKMENEIVAPKEGKIASINVAKGASVNAGDVLFSI | 0.347
14 | HMEKVTPEMIAEYNALAKKYNSNPEVVFKKKEIQRLKYIYSLMSEKQKETAEVFPNIPPPPPT | 0.162
15 | HMEKYNIIVDNEDNFRLDKIIALNMKDLSRTMIQEMINRGLVSVNGKITKASYKTKLNDQIEIMIED | -0.599
16 | HMELAALKILNSPIGKIAIGTSENGLVKLDILTSGQTRAEFSDLPKAHKLALDAADQLAAYF | 0.147
17 | HMELADNFAKLILTARESKGWTQAQLGQRMAETINVIKSAESGKPPADSVIRKFEMILGIELM | -2.06
18 | HMELDFLRLQIITGIHSGRLSNNEILMMYDTYSQKGGNSYVSRIVNDYVDENNIKEEGKRNARK | -1.5
19 | HMELDREALSDGLRRLSQLLAEDDIESRTLFRELAPGLKEQLGDDAVEKLAGHISRYEFEQAGALLATSG | -0.0504
20 | HMELIELTVTEEFEMARLDQFLAGHLTQSRTYIQKLIKAGQITINGNLITRVKVPVHYGDFILINIPDPE | -3.68
21 | HMELKFIGEAVNNPKRPLIAILGGAKVSDKIGVIENLLTKADKILIGGAMMFTFLKAEGKNIGTSLVED | 0.0754
22 | HMELLEVSVIIREADSTGWSAARQGMEQAAADLGAELRFLTLSQSNSAEEQRSLLAREVEGGADAVVLV | -0.57
23 | HMELNEMEAWSLVSKALRNGTYGAVEEFSRLPPTVQEAVGNPDNLRNWATSDYKAIETVIQSNFIKTY | -0.0842
24 | HMELNILELKSKERKISLEDHLYIKSFNFDNETNEYFYRLAFNSSKDLKNFKATINNDKTISIINFEI | -3.67

Row | Sequence | soluble fraction (log2)
25 | HMELPVNSIRVPDVVGLSLREAMQAMTDAGVPWQSVQAKGVGFVSRQSPEAGTVTQLRRVRLELKLF | -2.8
26 | HMELSPVDLGERLKIARETANFTQDAAAKAVGIARTTLVSIEKGQRTARLDEIQALSRFYGVSANALLR | -1.16
27 | HMELTDRQKQIIEIVKKQQPISGEKIASILGFARATLRPDFSLLTMSGILQAKPKVGYLINEE | -0.63
28 | HMELVEVGDLTGLTVEQAENVLKNSNISISIDKYDESDKYEKDQIISQNPQNKKVKKGTAIHVVLSNGP | 0.527
29 | HMEMKMGHIISKLRYESGYSQVELAEKIGITKGAVGMYETDKRKPDYDTLIKLADLFNVSTDYLLS | -0.378
30 | HMEMNDFETLRDMYLTGKIWNVGDIVEANGVRGKVIRKGTNYLSFVDEDNKVHKAWLYDIEE | 0.291
31 | HMEMSLGEKLKQARLTKNFSQEYMAEVLQISQKTYSNFENNKTKPDFSQIEEISKVLETSILEFLT | -1.12
32 | HMEMTGAHLRKKIRAKGFTFQQIADAIGESKQNLSQILSTNNIKTGTLERIAAAMGESVSYF | -0.00766
33 | HMENDYTQAQFVQDLDSGVVREVIIIPNREAPTGYARVVFGDVVRELYATDIREVEALAREHGYEPTVED | 0.343
34 | HMENFDNIFDQRLMPSLFIIRNINQAIENNNNNKFLLNSTISMKDKHWIEIHPHHLKLIISGYQT | -0.328
35 | HMENIEVDFGVGDTVSVIGGAWKDTVGVVQAMNPNKQSLTINVELFGRETPVEISFTDVQKM | -0.166
36 | HMENINIRNMGIRAVEAAIISLSPDQRTFTWGATNKKLVTVPYEENPYSALAAFFKTDDGIEIYDAIEKRL | -1.08
37 | HMENNNIAFSKFLEEVDSGRVVQVEIQGNNISGTLSDGSKFKTYSPNYPDLVSKLSEKNVSIIASPV | 0.343
38 | HMENPLVEVVVPVLNEERILKANIETLHHFLRTQPGFNFRITIADNGSTDKTQAIANDLTNSHAVIRV | -0.151
39 | HMENPMIEQLKQFIEAQGLTQGQLAAKLGVSTATVNQYLQGKYKGDTAALDAKAAQLMARSREK | 0.169
40 | HMENRILIPTAENIGERLDRYISSELDAPRSQVQIWIDSGLVAVSGGLKPKNYRLREGDEIEVTIPDPV | -0.11
41 | HMENRLREVRDEIATRHGILPTVFINDRVLMNIHSKKPKDVSQLWQVDGISDEFIMKYGPEFIAEYKKKAK | -0.119
42 | HMENRREYQKAIDYLSDQIRAGTLTVGSRLPTERAIAEALGISRNSTREALRTMENMGMIESKQGSGHYLT | -0.215
43 | HMENTELIELRKKRNLSQSQLAELLDLTRNQIANYESGRRIPDQETKQIIAGFFEMPAEEIFAG | -0.086
44 | HMENTFNENLRRIRKEKKITQEQLAEFVGVSPQAVSKWEMNSFPDASLLPKIAEKLEVSIDELFGLK | 0.205
45 | HMENTVVMPNLLGKTMTEAKIELKDLSISITLKGSENSSQYAAGQIISQSVDSGTRVAVGSSVEVTIAGS | -0.843
46 | HMENVIYGINGPVVTVRNSRSFSMMEMVFVGNERLVGEVIGITDKITTIQVYEETTGLRPGEPVYGTGSPM | -3.8
47 | HMENVRKTEWVTISNDKSQTRTTVYFESGNQKLDKHPQIQGFEYQRTYVEGGVKYYLFVEKGTKLDE | 0.0189
48 | HMENYGEAITYIHGMIEDSSEKMLAASKALKVNANTLIKFMKDPYSVAAHIRDRIVENLANLEKAVKAI | -0.254

Row | Sequence | soluble fraction (log2)
49 | HMENYYMPVVAGQSEQDAKSMLNAMKLSLSIQVQEQESDSVAKGLAIGTSPAAGSQIRKGSSVILYISKGA | -0.844
50 | HMEPALYRLFMAHPELNASAVARRLGIAQSLLAQYISGSKKPSPERERMILTEIHKIGEELATAS | -0.938
51 | HMEPAPPPAAPPADPELQKRIDKLVEYIGKNGPEFEAVIRDKQHDNPDYAFVFGGEGHAYYRYLLWLLPRP | -0.466
52 | HMEPELLTTKQVASVMNIGEERARAILLSRGVQPVSLPWGKERKTLRWSRRAVMTVIDTLHAEAQAKAGV | -2.59
53 | HMEPLPDIPRGTRVSHQTAPADGDMPERRETGWTMTEPIRAQDGLAYVGVSVYGRGVVMLPVNSLSII | -0.384
54 | HMEPSAQEIANKLLGHVKSLGLPITGLSISYNSTSDLATVRGQVQSQADREKIILAVGNVDHVAKVDDQLT | -0.028
55 | HMEPSQEFSLADMVAYDLTGYPKSAALRAAVGASLGIGYGNAKQFVYRLNHYGISKDDFHRAAQEALDGL | -1.1
56 | HMEPTAEQLKAIRQFASVNGRSWKSELRYLWETGAYHRAALGGADPGYLQQVRNQFGPGWLRAFKISK | -1.87
57 | HMEPTPREIVVQQLGYRGLEVLGNAEYQFPKETQIIILKLAELISSGSVTETLEGGKLLALFRGVGINVR | -1.55
58 | HMEPVQPVMYSEFIESVERGEVVEATIQGDKIIATDRSGNRYTVVGSAKDPQLVGQLLERNVAFKFVEE | 0.118
59 | HMEQAMIVILKENPDRRQLEFLTGWLQKQQIGIHISEGAHQTVLGLVGDATRLDIDMLKQMEIVEDVKRVQ | -0.823
60 | HMEQGDTQQEIREKILNLLADGERHMITELKNIRTDQPIDDDKIVGKTLKTLLDEEEVYMDGSYIQLNG | 0.653
61 | HMEQIGSIIKDIRKKNNLTQNEFASILGVTFQAVSKWENDKSIPDITILKDISNKFNVDLNYLISG | -0.405
62 | HMEQISVPIFTNDELVTFARSYSGELGYKIDDMAVLALYNRISNIQRLDQATTLTEVKDIVDEAVAKSE | 0.096
63 | HMEQLESAVASRTLIGQAQGVIMERYGLSAPNAFSVLSRISQDSNTKLAEVAQQIVATRRIPG | -0.093
64 | HMEQLNKNIKFDNFLESLNFINKVSEVAEEENHHPDLKFGWGYADITIFTHAIKGLSEGDFVLAAKIDVI | 0.19
65 | HMEQMSLISKKKGERIDKFLGENLGDLSRSYIQKLLKDGLILVNGKKVKANYKLNEGDQIDVEVPDP | 0.327
66 | HMEQMSPYPNPSKGKIQFHNQEPMDIKVFNSLGQIVFEQRILSRAILDLSRLSPGQYIVQAGEQKNIWIK | -1.64
67 | HMEQPPVPSVSITAALGSAVARRLAPHGFQKMPDLVDAYRAGKLAQISGIGGTTLDLIREWLTANARQQ | -0.441
68 | HMEQQEFIVPHDSEGQRLDLFLVSVLGTHSRSQIRKLIVNGHVKLENRAPRPNLPVRAGESVVVSMPEPT | -0.849
69 | HMEQQSIYLENRERMTINQVIDVDAFDEETLWANLKEGAVEISGSGLHIEKLDLAEGVLIVSGIIRAFAYV | -0.856
70 | HMEQQVDYTQFIQDVRQGQIREVDVDRNGVINGIKRSGENFVTVIPGGYDRDLINDLVKQGVNATGEL | 0.25

Reference: the domain aggregation screens of Martell et al. (2025)
